According to PMC8721105:

Key:
[1] = target: TbPEX19FL-His (T. brucei); assay: ELISA
[2] = target: TbPEX19FL-His (T. brucei); assay: AlphaScreen or HTRF
[3] = target: GST-TbPEX3d44 (T. brucei); assay: AlphaScreen or HTRF

Kd [1] [nM] | Kd [2] [nM] | Kd [3] [nM] | Substance
0.16 | 32.8 | – | GST-TbPEX3d44 (domain or fragment)
– | – | 3.7 | TbPEX19-Strep (natural protein)
– | – | 9.7 | tag-free TbPEX19 (natural protein)
